# Laboratory results: patent publication US20130309248A1 (CRUCELL HOLLAND B V, published 2013)
# Experiments:
# Assay in all cases: cell-based or functional assay
# [1] = target: HA of virus A/Brisbane/59/2007 (H1N1) (influenza A virus (H1N1))
# [2] = target: T1, HA of virus A/Wisconsin/67/2005 (H3N2) (influenza A virus (H3N2))
# [3] = target: T2, HA of virus A/Johannesburg/33/94 (H3N2) (influenza A virus (H3N2))
# [4] = target: T3, HA of virus A/Chick/Germany/N/49 (H10) (influenza A virus (H10))
# [5] = target: HA of virus A/Solomon Islands/IVR-145 (H1N1) (influenza A virus (H1N1))
# [6] = target: HA of virus A/New Caledonia/20/1999 (H1N1) (influenza A virus (H1N1))
# [7] = target: T4, HA of virus A/Hiroshima/52/2005 (H3N2) (influenza A virus (H3N2))
# [8] = target: T5, HA of virus A/Panama/2000/1999 (H3N2) (influenza A virus (H3N2))
# [9] = target: T6, HA of virus A/Mallard/Netherlands/12/2000 (H7N3) (influenza A virus (H7N3))
# [10] = target: T1, HA of virus A/Wisconsin/67/2005 (H3N2); remark: listed apart in the source
# [11] = target: T2, HA of virus A/Johannesburg/33/94 (H3N2); remark: listed apart in the source
# [12] = target: T3, HA of virus A/Chick/Germany/N/49 (H10); remark: listed apart in the source
# [13] = target: T4, HA of virus A/Hiroshima/52/2005 (H3N2); remark: listed apart in the source
# [14] = target: T5, HA of virus A/Panama/2000/1999 (H3N2); remark: listed apart in the source
# [15] = target: T6, HA of virus …; remark: listed apart in the source
binder,measurement,setting,value
"CR8041 (antibody, V domains shown) VH: QVQLVQSGAEVKKPGASVKVSCQASGYTFTSFGLSWVRQAPGQGPEWMGWISAYNGEIKYAQKFQGRVSMTTDTSTRTAYMEVRSLRPDDTAVYYCAREPPLYFSSWSLDF VL: EIVLTQSPGTLSLSPGERATLSCRASQSVSSNYLAWFQQKPGQAPRLLIYGASRRATGIPDRFSGSGSGTDFTLTISRLEPEDFAVYYCQQYDSSPRT",Neutralization titer SK50,[1],> 40 µg/mL
same,Neutralization titer SK50,[2],3.99 µg/mL
same,Neutralization titer SK50,[3],1.69 µg/mL
same,Neutralization titer SK50,[4],25 µg/mL
same,Neutralization titer SK50,[5],> 40 µg/mL
same,Neutralization titer SK50,[6],> 40 µg/mL
same,Neutralization titer SK50,[7],4.75 µg/mL
same,Neutralization titer SK50,[8],2.99 µg/mL
same,Neutralization titer SK50,[9],1.1 µg/mL
same,SK50 titer,[10],3.3 µg/mL
same,SK50 titer,[11],1.6 µg/mL
same,SK50 titer,[12],37.2 µg/mL
same,SK50 titer,[13],3.5 µg/mL
same,SK50 titer,[14],5 µg/mL
same,SK50 titer,[15],38 µg/mL
